Assays:
[1] = substrate: CC(C)=CCc1cc(/C=C/C(=O)O)ccc1O; experiment: HPLC assay of artepillin C formation; non-linear least-squares fit; type: biochemical, Artemisia capillaris; details: N. benthamiana microsomes, 0.5 mM DMAPP, 10 mM MgCl2, 30 °C, 20 min, 15.6-250 µM drupanin, mean ± SE
[2] = substrate: CC(C)=CCOP(=O)(O)OP(=O)(O)O; experiment: as above; type: biochemical, Artemisia capillaris; details: N. benthamiana microsomes, 0.5 mM drupanin, 10 mM MgCl2, 30 °C, 20 min, 12.5-200 µM DMAPP, mean ± SE

B1: AcPT1 (Artemisia capillaris) (protein)
chain: ISKVENNVSAQFQRRGYKNHFGQSLHEPLSLQKMDEEKFKLNAASTNNPQFDATHDLVKPTESVISFLEVLFRFIRPYAAVGTVLCIASMSLLTVEKLSDFSPLFFMKVLQALVGAMFMQMWVCGINQICDIELDKINKPSLPLASGELSMTTAITVSALSAIMSFSIGWIASPALFWGFVGWFVVGTAYSANLPWLRWKRFPLTSAFYMLCSRALVVPIGYYLHMQKSIHGGSALLSRPILFAVGMLSAFCISTIFFKDIPDIEGDRMHGIKSLAITLGEKRTFWMCIWILEIAYVAAAFFGATSPITWSKYITVISHLAMALALWTRAKSTDVKNKDAVQSMYYFLWQLFFAEYGLIALVR
notes: full CDS, 401 aa incl. predicted 38-aa plastid transit peptide; untagged (pGWB502, 35S promoter); transient expression in Nicotiana benthamiana leaves; microsomes
Km [1]: 50 ± 5 µM
Km [2]: 130 ± 20 µM

Source: paper PMC6802118, “Isolation of Artemisia capillaris membrane-bound di-prenyltransferase for phenylpropanoids and redesign of artepillin C in yeast” (Communications Biology, 2019)
